The record followed here is paper PMC4592949 (eLife, 2015).

B1: NCOA4 383-522-GST (domain or fragment, human, UniProt Q13772-1 383-522, looked up)
chain: SMVTEDWLVQNHQDPCKVEEVCRANEPCTSFAECVCDENCEKEALYKWLLKKEGKDKNGMPVEPKPEPEKHKDSLNMWLCPRKEVIEQTKAPKAMTPSRIADSFQVIKNSPLSEWLIRPPYKEGSPKEVPGTEDRAGKQK
notes: also called NCOA4-GST; source: E. coli BL21 (DE3) Rosetta, purified (Ni-IMAC, glutathione Sepharose, Senp1 cleavage); not shown: His6-Sumo, N-terminal, cleaved; GST, C-terminal, kept

Settings in all cases: both partners purified
Assay [1] addresses T1, apoferritin purified from horse spleen (containing both FTH1 and FTL) (horse, UniProt Q8MIP0 1-182; P02791 1-175).
T1 construct: ferritin heavy chain (FTH1), horse, from spleen apoferritin; ferritin light chain (FTL), horse, from spleen apoferritin; Ferritin is a complex of 24 subunits, a mixture of heavy and light chains; also called horse spleen apoferritin; apoferritin purified from equine spleen; source: bought: Sigma A3641, apoferritin purified from equine spleen
The experiment in a line: pull-down; NCOA4-GST fragments on glutathione Sepharose 4B, mixed with 50 μg apoferritin from equine spleen; 30 min at 4°C; 150 mM NaCl, 20 mM Tris pH 7.4, 2 mM DTT, 0.5% Nonidet P-40; SDS-PAGE and Coomassie stain.

Assay [2] concerns the target T2, recombinant FTH1-only ferritin complex, wild type (human, UniProt P02794 2-183).
T2 construct: Purified as 450 kDa complexes; also called FTH1^WT; FTH1-only complexes; source: E. coli, purified (Ni-IMAC, Senp1 cleavage, Q-sepharose, Superose 6 gel filtration); not shown: His6-Sumo, N-terminal, cleaved; copies: 24
The experiment in a line: pull-down; NCOA4 383-522-GST on glutathione Sepharose 4B, mixed with 50 μg recombinant FTH1-only or FTL-only complexes; 30 min at 4°C; 150 mM NaCl, 20 mM Tris pH 7.4, 2 mM DTT, 0.5% Nonidet P-40; Coomassie stain.

The target in assay [3] is T3, recombinant HERC2 2540-2700 (human, UniProt O95714 2540-2700).
T3 construct: HERC2, residues 2540-2700; source: E. coli, purified (Ni-IMAC, Senp1 cleavage, Q-sepharose, Superdex 75); not shown: His6-Sumo, N-terminal, cleaved
T3 sequence (looked up): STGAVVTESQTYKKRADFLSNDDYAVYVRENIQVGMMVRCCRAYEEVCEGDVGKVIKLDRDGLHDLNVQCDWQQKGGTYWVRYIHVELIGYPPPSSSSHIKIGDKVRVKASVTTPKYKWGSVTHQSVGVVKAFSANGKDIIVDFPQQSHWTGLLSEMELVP
Nature of the assay: pull-down; NCOA4-GST fragments on glutathione Sepharose 4B (in one panel pre-treated with DFO), mixed with 50 μg recombinant HERC2 fragments; 30 min at 4°C; 150 mM NaCl, 20 mM Tris pH 7.4, 2 mM DTT, 0.5% Nonidet P-40; Coomassie stain.

The assay “NCOA4 383-522-GST” addresses B1. The assay is described as above.

T1 sequence (Q8MIP0 whole entry, chain 1 of 2): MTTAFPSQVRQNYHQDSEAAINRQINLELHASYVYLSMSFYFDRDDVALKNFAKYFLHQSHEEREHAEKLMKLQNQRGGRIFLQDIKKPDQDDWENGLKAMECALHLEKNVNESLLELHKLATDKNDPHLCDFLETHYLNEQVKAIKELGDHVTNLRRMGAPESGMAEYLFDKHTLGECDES
T1 sequence (P02791 whole entry, chain 2 of 2): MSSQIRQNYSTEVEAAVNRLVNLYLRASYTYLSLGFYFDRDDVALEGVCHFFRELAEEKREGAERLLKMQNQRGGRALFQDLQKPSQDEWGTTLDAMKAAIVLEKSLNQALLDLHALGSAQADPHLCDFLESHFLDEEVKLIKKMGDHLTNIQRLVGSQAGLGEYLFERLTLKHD
T2 sequence (P02794 2-183, one chain of several): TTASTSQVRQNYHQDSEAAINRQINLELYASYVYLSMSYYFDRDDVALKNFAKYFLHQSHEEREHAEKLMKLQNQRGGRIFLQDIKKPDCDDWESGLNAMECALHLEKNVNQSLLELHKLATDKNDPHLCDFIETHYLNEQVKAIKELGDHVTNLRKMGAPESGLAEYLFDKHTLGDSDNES

In the case of B1, the binding result in assay [1], in assay [2] and in assay [3] was “binds” in each case.

B2: recombinant HERC2 CUL7 domain (amino acids 2553-2639) (domain or fragment)
chain: not shown
notes: also called minimal CUL7 domain; source: E. coli, purified (Ni-IMAC, Senp1 cleavage, Q-sepharose, Superdex 75); not shown: His6-Sumo, N-terminal, cleaved
For B2, in the assay with NCOA4 383-522-GST, the binding result was “binds”.

B3: NCOA4 475-522-GST (domain or fragment, human, UniProt Q13772-1 475-522, looked up)
chain: KAMTPSRIADSFQVIKNSPLSEWLIRPPYKEGSPKEVPGTEDRAGKQK
notes: source: E. coli BL21 (DE3) Rosetta, purified (Ni-IMAC, glutathione Sepharose, Senp1 cleavage); not shown: His6-Sumo, N-terminal, cleaved; GST, C-terminal, kept
On to B3, for which, in assay [1], the binding result is “binds”.
